In PMC7077807:

Molecular target: Synaptotagmin II, P29101
Assay: BLI

Sequence of Synaptotagmin II, P29101 (P29101 40-60): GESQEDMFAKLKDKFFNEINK

B1: BoNT/B HC HC, P10844 (protein)
chain: SEILNNIILNLRYKDNNLIDLSGYGAKVEVYDGVELNDKNQFKLTSSANSKIRVTQNQNIIFNSVFLDFSVSFWIRIPKYKNDGIQNYIHNEYTIINCMKNNSGWKISIRGNRIIWTLIDINGKTKSVFFEYNIREDISEYINRWFFVTITNNLNNAKIYINGKLESNTDIKDIREVIANGEIIFKLDGDIDRTQFIWMKYFSIFNTELSQSNIEERYKIQSYSEYLKDFWGNPLMYNKEYYMFNAGNKNSYIKLKKDSPVGEILTRSKYNQNSKYINYRDLYIGEKFIIRRKSNSQSINDDIVRKEDYIYLDFFNLNQEWRVYTYKYFKKEEEKLFLAPISDSDEFYNTIQIKEYDEQPTYSCQLLFKKDEESTDEIGLIGIHRFYESGIVFEEYKDYFCISKWYLKEVKRKPYNLKLGCNWQFIPKDEGWTE
Kd: 51 µM
